Measured values from article PMC7600425, “Modulation of Guanylate Cyclase Activating Protein 1 (GCAP1) Dimeric Assembly by Ca^2+ or Mg^2+: Hints to Understand Protein Activity” (Biomolecules, 2020).

B1: human guanylyl cyclase-activating protein 1 (hGCAP1), N-terminally myristoylated, E6S (natural protein, UniProt P43080 1-201, looked up)
chain: MGNVMSGKSVEELSSTECHQWYKKFMTECPSGQLTLYEFRQFFGLKNLSPSASQYVEQMFETFDFNKDGYIDFMEYVAALSLVLKGKVEQKLRWYFKLYDVDGNGCIDRDELLTIIQAIRAINPCSDTTMTAEEFTDTVFSKIDVNGDGELSLEEFIEGVQKDQMLLDTLTRSLDLTRIVRRLQNGEQDEEGADEAAEAAG
modifications: N-terminal myristoylation (myristoylated Gly at the N-term); in the MST experiments the labelled copy carries the dye NT-647-NHS on primary amines (lysine residues), about 1:1
notes: printed as 201 amino acids, 22.9 kDa; E6S needed for myristoylation in E. coli; In MST a dye-labelled copy was titrated with unlabelled protein; also called human GCAP1; recombinant human (h) GCAP1; source: E. coli BL21-CodonPlus RP, co-expressed with yeast N-myristoyltransferase, purified (ion exchange, SEC)

Tests used:
RetGC (Homo sapiens) = RetGC (Homo sapiens) (UniProt Q02846); settings: cited from earlier work
[1] = biological target: the molecule itself; test: SEC; analytical SEC, Superdex 75 Increase 10/300 GL, six dilutions (87-2 µM injected); 20 mM Tris-HCl pH 8.0, 100 mM NaCl, 1 mM DTT, 5 mM CaCl2; Ca2+-bound; Kd from a 3-parameter fit of elution volume against concentration; dimer to monomers
[2] = biological target: the molecule itself; test: SEC; analytical SEC, Superdex 75 Increase 10/300 GL, dilution series; 20 mM Tris-HCl pH 8.0, 100 mM NaCl, 1 mM DTT, 5 mM MgCl2, 2.5 mM EGTA; Mg2+-bound; Kd from a 3-parameter fit of elution volume against concentration; dimer to monomers
[3] = biological target: the molecule itself; test: MST; NT-647-NHS-labelled hGCAP1 with 16 dilutions of unlabelled hGCAP1 (46.6 µM to 11.4 nM); 20 mM Tris-HCl, 100 mM NaCl, pH 7.5, 1 mM DTT, 5 mM CaCl2, 0.05% Tween20; 24 °C; Ca2+-bound; dimer to monomers
[4] = biological target: the molecule itself; test: MST; NT-647-NHS-labelled hGCAP1 with dilutions of unlabelled hGCAP1; 20 mM Tris-HCl, 150 mM KCl, 5 mM MgCl2, 2.5 mM EGTA, pH 7.5, 1 mM DTT, 0.05% Tween20; Mg2+-bound; dimer to monomers

Chain of RetGC (Homo sapiens) (Q02846 52-1103): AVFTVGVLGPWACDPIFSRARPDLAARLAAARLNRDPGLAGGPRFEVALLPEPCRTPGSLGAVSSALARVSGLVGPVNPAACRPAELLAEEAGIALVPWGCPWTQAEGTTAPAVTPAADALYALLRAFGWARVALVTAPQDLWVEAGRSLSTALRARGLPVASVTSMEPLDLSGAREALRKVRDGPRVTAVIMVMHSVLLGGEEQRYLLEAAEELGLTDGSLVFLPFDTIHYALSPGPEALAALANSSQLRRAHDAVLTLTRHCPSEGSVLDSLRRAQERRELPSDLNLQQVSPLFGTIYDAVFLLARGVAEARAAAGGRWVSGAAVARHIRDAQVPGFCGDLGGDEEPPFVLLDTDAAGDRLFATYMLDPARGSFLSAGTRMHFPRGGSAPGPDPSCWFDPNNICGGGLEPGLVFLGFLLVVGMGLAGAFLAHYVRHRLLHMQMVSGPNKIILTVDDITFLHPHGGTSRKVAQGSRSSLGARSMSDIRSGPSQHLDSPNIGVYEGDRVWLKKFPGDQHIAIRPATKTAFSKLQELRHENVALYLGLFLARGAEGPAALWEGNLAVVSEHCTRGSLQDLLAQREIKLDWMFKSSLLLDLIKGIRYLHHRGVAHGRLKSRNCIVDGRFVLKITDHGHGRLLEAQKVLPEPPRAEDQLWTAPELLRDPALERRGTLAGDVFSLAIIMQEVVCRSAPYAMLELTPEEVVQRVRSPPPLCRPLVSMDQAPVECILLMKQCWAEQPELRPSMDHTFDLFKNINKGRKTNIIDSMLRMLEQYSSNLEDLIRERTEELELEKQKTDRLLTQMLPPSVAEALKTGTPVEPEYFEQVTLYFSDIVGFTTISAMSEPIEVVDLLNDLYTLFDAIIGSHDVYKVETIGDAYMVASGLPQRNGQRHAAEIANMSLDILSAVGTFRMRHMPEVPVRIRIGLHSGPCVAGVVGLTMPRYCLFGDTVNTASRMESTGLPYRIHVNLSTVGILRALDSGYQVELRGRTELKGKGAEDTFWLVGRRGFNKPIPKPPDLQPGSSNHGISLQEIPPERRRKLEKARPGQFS

Molecule	Kd (RetGC (Homo sapiens)) [µM]	Kd [1] [µM]	stoichiometry N [1]	Kd [2] [µM]	Kd [3] [µM]	Kd [4] [µM]
GCAP1 (from UniProt P43080)	3.2	–	–	–	–	–
B1	–	8.8 ± 0.7	2	45 ± 15	9.4 ± 1.3	77.2 ± 8.9
